Where no end group is shown, it is not given here.

In data set [1] the target is T1, MFN2-HR2 domain (residues 678–757) (human, UniProt O95140 678-757).
T1 chain: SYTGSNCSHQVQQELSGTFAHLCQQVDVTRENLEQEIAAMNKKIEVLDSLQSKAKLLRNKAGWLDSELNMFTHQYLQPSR
Nature of the data set: MST.

Data set [2] deals with the molecule itself. The data set can be described thus: native gel or EMSA; BN-PAGE of digitonin lysates of mitochondria isolated from MEFs, without GTP; blot with anti-MFN2.

Consider QIAEAVRLIMDSLHMAAR (also: 'Gly' in name not defined) [367–384Gly peptide], for which the affinity in data set [1], expressed as Kd, was 3000 nM.

B1: mitofusin-2 (MFN2) of MEF mitochondria (natural protein, mouse (endogenous in MEFs), UniProt Q80U63 1-757, looked up)
chain: MSLLFSRCNSIVTVKKDKRHMAEVNASPLKHFVTAKKKINGIFEQLGAYIQESASFLEDTHRNTELDPVTTEEQVLDVKGYLSKVRGISEVLARRHMKVAFFGRTSNGKSTVINAMLWDKVLPSGIGHTTNCFLRVGGTDGHEAFLLTEGSEEKKSVKTVNQLAHALHQDEQLHAGSMVSVMWPNSKCPLLKDDLVLMDSPGIDVTTELDSWIDKFCLDADVFVLVANSESTLMQTEKQFFHKVSERLSRPNIFILNNRWDASASEPEYMEEVRRQHMERCTSFLVDELGVVDRAQAGDRIFFVSAKEVLSARVQKAQGMPEGGGALAEGFQVRMFEFQNFERQFEECISQSAVKTKFEQHTVRAKQIAEAVRLIMDSLHIAAQEQRVYCLEMREERQDRLRFIDKQLELLAQDYKLRIKQITEEVERQVSTAMAEEIRRLSVLVDEYQMDFHPSPVVLKVYKNELHRHIEEGLGRNLSDRCSTAIASSLQTMQQDMIDGLKPLLPVSMRNQIDMLVPRQCFSLSYDLNCDKLCADFQEDIEFHFSLGWTMLVNRFLGPKNSRRALLGYSDQVQRPLPLTPANPSMPPLPQSSLTQEELMVSMVTGLASLTSRTSMGILVVGGVVWKAVGWRLIALSFGLYGLLYVYERLTWTTKAKERAFKRQFVEYASEKLQLIISYTGSNCSHQVQQELSGTFAHLCQQVDITRDNLEQEIAAMNKKVEALDSLQSRAKLLRNKAGWLDSELNMFTHQYLQPSR
notes: mitofusin-2 (MFN2), endogenous in mouse embryonic fibroblasts, detected with an anti-MFN2 antibody; source: endogenous, mitochondria isolated from MEFs, digitonin lysate
For the molecule B1, the stoichiometry N – broadly, a count of units in the complex or per binding partner – in data set [2] came to 2.

On to QDRLKFIDKQLELLAQDYKLR (also: 'Gly' in name not defined) [398–418Gly peptide], for which the Kd (usually a measure of binding affinity in units of concentration) in data set [1] was 1500 nM.

The values are drawn from article PMC9262907, “Modulating mitofusins to control mitochondrial function and signaling” (Nature Communications, 2022).
